Reference: patent publication US20230212266A1 (FRED HUTCHINSON CANCER CENTER, published 2023)
Like-named read-outs stand apart in the source and are kept apart here.

Legend:
Assay in all cases: BLI, mAb on anti-human Fc probe, antigen in solution
[1] = biological target: T1, SARS-CoV-2 receptor binding domain (RBD) (SARS-CoV-2, UniProt P0DTC2 319-591)
[2] = biological target: T1, SARS-CoV-2 receptor binding domain (RBD); remark: listed apart in the source
[3] = biological target: T1, SARS-CoV-2 receptor binding domain (RBD); remark: listed apart in the source
[4] = biological target: T1, SARS-CoV-2 receptor binding domain (RBD); remark: listed apart in the source
[5] = biological target: T1, SARS-CoV-2 receptor binding domain (RBD); remark: listed apart in the source
[6] = biological target: T1, SARS-CoV-2 receptor binding domain (RBD); remark: listed apart in the source
[7] = biological target: T1, SARS-CoV-2 receptor binding domain (RBD); remark: listed apart in the source
[8] = biological target: T1, SARS-CoV-2 receptor binding domain (RBD); remark: listed apart in the source
[9] = biological target: T1, SARS-CoV-2 receptor binding domain (RBD); remark: listed apart in the source
[10] = biological target: T1, SARS-CoV-2 receptor binding domain (RBD); remark: listed apart in the source
[11] = biological target: T1, SARS-CoV-2 receptor binding domain (RBD); remark: listed apart in the source
[12] = biological target: T1, SARS-CoV-2 receptor binding domain (RBD); remark: listed apart in the source
[13] = biological target: T1, SARS-CoV-2 receptor binding domain (RBD); remark: listed apart in the source
[14] = biological target: T1, SARS-CoV-2 receptor binding domain (RBD); remark: listed apart in the source
[15] = biological target: T1, SARS-CoV-2 receptor binding domain (RBD); remark: listed apart in the source
[16] = biological target: T1, SARS-CoV-2 receptor binding domain (RBD); remark: listed apart in the source
[17] = biological target: T1, SARS-CoV-2 receptor binding domain (RBD); remark: listed apart in the source

B1: CV2-9 (antibody, V domains shown)
VH: EVQLVESGGGLIQPGGSLRLSCAASGFTVSSNYMTWVRQAPGKGLEWVSIIYSGGSTYYADSVKGRFTISRDNSKNTLYLQMNSLRAEDTAVYYCAAGYYDSINWGQGTLVTVPS
VL: DIQMTQSPSTLSASVGDRVTITCRASQSISTWLAWYQQKPGKAPKLLIYKASNLESGVPSRFSGSGSGTEFTLTISSLQPDDFATYYCQQYYTYSWTFGQGTKLEIKR
notes: expressed as IgG
B1: no binding [1].

B2: CV44 (antibody, V domains shown)
VH: QVQLVQSGAEVKKPGASVKVSCKASGYTFTSYYMHWVRQAPGQGLEWMGIINPSGGSTSYAQKFQGRVTMTRDTSTSTVYMELSSLRSEDTAVYYCARDLTSTSSSPYSYYYGMDVWGQGTTVTVSS
VL: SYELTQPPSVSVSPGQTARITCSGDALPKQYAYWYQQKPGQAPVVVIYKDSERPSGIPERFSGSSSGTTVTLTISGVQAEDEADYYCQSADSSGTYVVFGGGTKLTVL
notes: expressed as IgG
B2: no binding [2].

B3: CV2-11 (antibody, V domains shown)
VH: EVQLVESGGGLVKPGGSLRLSCAASGFTFSSYSMNWVRQAPGKGLEWVSSISSSRSYIYYADSVKGRFTISRDNAKNSLYLQMNSLRAEDTAVYYCASNPAADPNTYYYYGMDVWGQGTTVTVSS
VL: QPVLTQPPSASASLGASVTLTCTLSSGYSNYKVDWYQQRPGKGPRFVMRVGTGGIVGSKGDGIPDRFSVLGSGLNRYLTIKNIQEEDESDYHCGADHGSGSNFVGVFGGGTKLTVL
notes: expressed as IgG
B3: no binding [3].

B4: CV2-6 (antibody, V domains shown)
VH: QVQLVESGGGVVQPGRSLRLSCAASGFTFSIYAIHWVRQAPGKGLEWVAVISYDGINKYYADAVKGRFTISRDNSKNTLFLQMNSLRTEDTAVYYCARAMGGNYFHAFDIWGQGTMVTVSS
VL: EIVLTQSPGTLSLSPGERATLSCRASQSVSSSYLAWYQRKPGQAPRLLIYGASNRATGIPDRFSGSGSGTDFTLTISRLEPEDFAVFYCQQYGSSPWTFGQGTKVEIK
notes: expressed as IgG
B4: no binding [4].

B5: CV2-10 (antibody, V domains shown)
VH: QVQLQESGPGLVKPSGTLSLTCAVSGGSISSSTWWSWVRQPPGKGLEWIGEIYHSGSTNYNPSLKSRVTISVDKSKNQFSLKLSSVTAADTAVYYCARSASNYFGYYYYGMDVWGQGTTVTVSS
VL: EIVLTQSPATLSLSPGERATLSCRASQSVSSQLAWYQQKPGQAPRLLISDASNRATGIPARFSGSGSGTDFTLTISSLEPEDFAVYYCQQRSNWPRTFGQGTKVEIK
notes: expressed as IgG
B5: no binding [5].

B6: CV6 (antibody, V domains shown)
VH: QVQLVQSGAEVKKPGASVKVSCKVSGYTLTELSMHWVRQAPGKGLEWMGGFDPEDGETIYAQKFQGRVTMTEDTSTDTAYMELSSLRSEDTAVYYCATGPPYCSSTSCEHWFDPWGQGTLVTVSS
VL: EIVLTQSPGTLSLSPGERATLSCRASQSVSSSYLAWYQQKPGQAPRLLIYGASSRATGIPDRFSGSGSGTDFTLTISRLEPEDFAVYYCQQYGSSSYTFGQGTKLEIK
notes: expressed as IgG
B6: no binding [6].

B7: CV48 (antibody, V domains shown)
VH: QVQLVQSGAEVKKPGSSVKVSCKASGGTFSSYTINWVRQAPGQGLEWMGRIIPILGIADYAQKFQGRVTITADKSTSTAYMELSSLRSEDTAVYYCARDLVEDTAMVTGAAAGTWGQGTLVTVSS
VL: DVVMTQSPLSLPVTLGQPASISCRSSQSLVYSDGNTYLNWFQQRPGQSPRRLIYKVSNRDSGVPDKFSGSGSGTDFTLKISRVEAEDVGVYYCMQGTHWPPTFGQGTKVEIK
notes: expressed as IgG
B7: no binding [7].

B8: CV2-4 (antibody, V domains shown)
VH: QVQLVQSGAEVKKPGSSVKVSCKASGGTFSSYAITWVRQAPGQGLEWMGGIIPIFGTANYAQKFQGRVTITADESTSTAYMELSSLRSEDTAVYYCVRVALYDSSGYSPDYWGQGTLVTVSS
VL: EIVLTQSPATLSLSPGERATLSCRASQSVSNFLAWYQQKPGQAPRLLIYDASNRATGIPARFSGSGSGTDFTLTISSLEPEDFAVYYCQHRSNWPPGITFGQGTRLEIK
notes: expressed as IgG
B8: no binding [8].

B9: CV2-5 (antibody, V domains shown)
VH: QVQLVQSGAEVKKPGSSVKVSCKASGGTFSSYAISWVRQAPGQGLEWMGGIIPIFGTTNNAQKFQGRVTLTADESTSAAYMELSSLRSEDTAVYYCARIEPYASTGYTFDYWGQGTLVTVSS
VL: EIVLTQSPATLSLSPGERATLSCRASQSVSSFLAWYQQKPGQAPRLLIYDASNRATGIPARFSGSGSGTDFTLTISSLEPEDFAVYYCQQRSNWPPRITFGQGTRLEIK
notes: expressed as IgG
B9: no binding [9].

B10: CV2-2 (antibody, V domains shown)
VH: EVQLLESGGGLAQPGGSLRLSCAASGFTFSSYAMSWVRQAPGKGLEWVSAISGSGGNTYYADSLKGRFTISRDNSKSTLYLQMNSLRAEDTAVYYCAKGPMWQWLVRLSLVGDYWGQGTLVTVSS
VL: SYVLTQPPSVSVAPGQTARITCGGNNIGSKGVHWYQQKPGQAPVLVVFDDSDRPSGIPERFSGSNSGNTATLTISRVEAGDEADYYCQVWDSTSDHPGYVFGTGTKVTVL
notes: expressed as IgG
B10: no binding [10].

B11: CV2-1 (antibody, V domains shown)
VH: QVQLVESGGGVVQPGRSLRLSCAASGFTFSSYAMHWVRQAPGKGLEWVAVISYDGSNKYYADSVKGRFTISRDNSKNTLYLQMNSLRAEDTAIYYCARPYSGSYYAYFDYWGQGTLVTVSS
VL: EIVMTQSPATLSVSPGERATLSCRASQSVSSNLAWYQQKPGQAPRLLIYGASTRATGIPARFSGSGSGTEFTLTISSLQSEDFAVYYCQQYNNWLALTFGGGTKVEIK
notes: expressed as IgG
B11: no binding [11].

B12: CV2-8 (antibody, V domains shown)
VH: QVQLVESGGGVVQPGRSLRLSCGASGFIFSSYAMHWVRQAPGKGLEWVAVISYDGNNKYYADSVKGRFTISRDNSKNTLYLQMNSLRAEDTAVYYCARPYSGTYFSAFDIWGQGTMVTVSS
VL: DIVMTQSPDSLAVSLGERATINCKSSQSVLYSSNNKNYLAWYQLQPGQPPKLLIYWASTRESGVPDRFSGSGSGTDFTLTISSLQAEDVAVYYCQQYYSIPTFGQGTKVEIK
notes: expressed as IgG
B12: no binding [12].

B13: CV2-12 (antibody, V domains shown)
VH: QVQLVESGGGVVQPGRSLRLSCAASGFTFSSYGIHWVRQAPGKGLEWVAVISYDGINKYYADSVKGRFTISRDNSKNTLYLHMNSLRAEDTAVYYCARPNSGSYHSYFDYWGQGTLVTVSS
VL: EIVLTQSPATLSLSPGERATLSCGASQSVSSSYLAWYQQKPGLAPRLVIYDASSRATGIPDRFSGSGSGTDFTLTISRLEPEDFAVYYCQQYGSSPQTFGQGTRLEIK
notes: expressed as IgG
B13: no binding [13].

B14: CV2-13 (antibody, V domains shown)
VH: EVQLVESGGGLVQPGGSLRLSCAASGFTFSSYEMNWVRQAPGKGLEWVSYISSSGSTIYYADSVKGRFTISRDNAKNSLYLEMNSLRAEDTAVYYCASTSDSGSYYIHWYFDLWGRGTLVTVSS
VL: QSALTQPASVSGSPGQSITISCTGTSSDVGSYNLVSWYQQHPGKAPKLMIYDVSKRPSGVSNRFSGSKSGNTASLTISGLQAEDEADYYCCSHAGSSTSYIFGTGTKVTVL
notes: expressed as IgG
B14: no binding [14].

B15: CV47 (antibody, V domains shown)
VH: QVQLVQSGAEVKKPGASVKVSCKASGYTFTSYGISWVRQAPGQGLEWMGWISAYSGNTNYAQKLQGRVTMTTDTSTSTAYMEVRSLRSDDTAVYYCARVGLWWLGHPDVFDIWGQGTMVTVSS
VL: DIQMTQSPSSLSASVGDRVTITCRASQGIRNDLGWYQQKPGKAPKRLIYAASSLQSGVPSRFSGSGSGTEFTLTISSLQPEDFATYYCLQHNSYPLTFGGGTKVEIK
notes: expressed as IgG
B15: no binding [15].

B16: CV2-3 (antibody, V domains shown)
VH: QLQLQESGPGLVKPSETLSLTCTVSGGSISSSTYYWGWIRQPPGKGLEWIGNIYYTGSTYYNPSLKSRVTISVDTSKNHFSLRLSSVTAADTAVYYCARHNRFWSEDTPFDPWGQGTLVTVSS
VL: DIQMTQSPSSLSASVGDRVTITCRASQGIRNDLGWYQQKPGKAPKRLIYAASSLQSGVPSRFSGSGSGTEFTLTISSLQPEDFATYYCLQHNSYPLTFGGGTKVEIK
notes: expressed as IgG
B16: no binding [16].

B17: CV42 (antibody, V domains shown)
VH: QVQLVQSGAEVKKPGASVKVSCKASGYTFTSYGISWVRQAPGQGLEWMGWISAYNGNTNYAQKVQGRVTMTTDTSTSTAYMELRSLRSDDTAVYYCARDRGYAATFGVFDYWGQGTLVTVSS
VL: DIQMTQSPSSLSASVGDRVTITCRASQSISSYLNWYQQKPGKAPKFLIYAASSLQSGVPSRFSGSGSGTDFTLTISSLQPEDFATYYCQQTYITAFTFGPGTKVDIK
notes: expressed as IgG
B17: no binding [17].
